From patent US7700329B2, “Methods for making simvastatin and intermediates” (priority 2003, dated 2010)
Values after ≈ are worked out from the molar mass of the structure shown.

Assays:
[1] = pH 8
[2] = physchem; conditions: pH 9.5
[3] = Enzyme screen for hydrolysis of simvastatin; type: biochemical; conditions: 2.5 mM substrate, 100 mM phosphate buffer/co-solvent pH 7 to 8, 30° C., 48 h; confirmed at 1 mM
Experimental: (§1) Any method for screening for enzymes for use in the methods of the invention, e.g., enzymes for the hydrolysis of lovastatin, lovastatin acid, 4-acetyl simvastatin or simvastatin, can be used, and, these methods are well known in the art. For example, in one exemplary set of screen conditions used to determine an enzyme(s) to be used in a method of the invention comprises use of 2.5 mM substrate, 100 mM phosphate buffer/co-solvent pH 7 to pH 8, 30° C., 48 h, with the following composition: (i) lovastatin or simvastatin in MTBE/buffer, (ii) lovastatin or simvastatin in toluene/buffer, (iii) lovastatin acid or simvastatin acid in 10% methanol/buffer. Screen results were confirmed at 1 mM substrate. […] SEQ ID NO:4 and SEQ ID NO:2 were further evaluated at 25, 50 and 100 mM lovastatin acid in 10% MeOH/buffer, pH 9, the more soluble lovastatin acid being used as substrate for convenience.

[4] = Comparison of genomic clones for hydrolysis of lovastatin acid under standard conditions; type: biochemical; conditions: same total protein concentration or same activity normalized against MUB
Text: Genomic clones comprising sequences encoding enzymes having sequences as set forth in SEQ ID NO:4, SEQ ID NO:2, SEQ ID NO:6 (e.g., encoded by exemplary SEQ ID NO:3, SEQ ID NO:1, and SEQ ID NO:5, respectively), were compared for the hydrolysis of lovastatin acid under standard conditions (the same total protein concentration, or the same enzyme activity normalized against the fluorescent substrate, methylumbelliferyl butyrate (MUB)).

[5] = Enzyme screen for hydrolysis of lovastatin or lovastatin acid; type: biochemical; conditions: 2.5 mM substrate, 100 mM phosphate buffer/co-solvent pH 7 to 8, 30° C., 48 h; confirmed at 1 mM
Experimental: as §1

[6] = Heat pre-treatment of lovastatin esterase, then lovastatin hydrolysis; type: biochemical; conditions: 60° C. for 30 min, centrifuged, supernatant used
Text: Heat treatment has often been used as a convenient method to purify crude enzyme preparations when there is differential thermal stability between the desired enzyme and other contaminating proteins.

[7] = Large-scale hydrolysis of lovastatin, specific activity of esterase; type: biochemical; conditions: 100 g scale, 0.5 M lovastatin
Experimental: The in situ hydrolysis of lovastatin with SEQ ID NO:4 was optimized such that insignificant amounts of NaCl generated: 0.85 g lovastatin in MeOH and equimolar NaOH added. Clarified lysate of E. coli containing SEQ ID NO:4 was added to lovastatin acid. […] See FIG. 27 for an illustration summary of the results.
The results of Response Surface Analysis (RSA) can be applied to large-scale hydrolysis of lovastatin, e.g., using a protocol as illustrated in FIG. 28: • Reaction performed successfully on 100 g scale (0.5 M); • 97.5% conversion in 27 h; • Productivity: x g/g esterase/h; • Specific activity: 0.084 μmol/mg esterase/min.

CCC(C)(C)C(=O)O[C@H]1C[C@@H](C)C=C2C=C[C@H](C)[C@H](CC[C@@H]3C[C@@H](OC(C)=O)CC(=O)O3)[C@H]21 [4-acetyl simvastatin]
elimination [1]: 13%

C[C@H]1C=C2C=C[C@H](C)[C@H](CC[C@@H](O)C[C@@H](O)CC(=O)O)C2[C@@H](O)C1 (stereo partly drawn) [Triol acid]
solubility [2]: ~200 mM (≈ 67.7 mg/mL)

B1: SEQ ID NO:4: novel lovastatin esterase, family VII esterase with SXXK motif, encoded by SEQ ID NO:3 (protein)
chain: MEIHGTCDPKFHLVRQEFERNLRERGEVGASVCVTLHGETVVDLWGGMARADTQTPWTAETVSIVFSSTKGATALCAHMLASRGQLDLDAPVATYWPEFAQAGKARIPVKMLLNHQAGLPAVRTPLPQGAYADWELMVNTLAKEEPFWEPGTRNGYHALTMGWLVGEVVRRVSGKSLGTFFQEEIARPLGLDFWIGLPAEQEARVAPMIAAEPDPQSLFFQEVAKPGALQSLVLLNSGGYMGAQPEYDSRAAHAAEIGAAGGITNARGLAGMYAPLACGGKLKGVELVSPDMLARMSRVASATGRDAVLMMPTRFALGFMKSMDNRREPAGVQDSALFGEEAFGHVGAGGSFGFADPKAGMSFGYTMNRMGLGAGLNPRGQSLVDATYRSLGYQSDASGAWT
modifications: Unkown; Soil sample
activity for the hydrolysis of simvastatin [3]: showed activity
activity for hydrolysis of lovastatin acid compared among genomic clones [4]: best activity
activity for the hydrolysis of lovastatin or lovastatin acid [5]: active
activity of heat pre-treated versus untreated enzyme [6]: no difference in activity
Specific activity [7]: 0.084 μmol/mg esterase/min

B2: SEQ ID NO:6: feruloyl esterase encoded by SEQ ID NO:5 (protein)
chain: MRSAARISVAAVAFLCLLLTTRVSAQIVPAMECADLANQQLPNTTITSAQTVTTGSLTPPGSTNPITDLPPFCRVTGAIAPTSESHILFEVWLPLDKWNGKFAGVGNGGWAGIISFGALGSQLKRGYATASTNTGHEAAPGMNAARFAFEKPEQLIDFAYRSQHETALKAKALVQAFYGKPPEHSYFIGCSSGGYQGLMEAQRFPADYDGIVAGMPANNWTRLMAGDLDAILAVSVDPASHLPVSALGLLYRSVLAACDGIDGVVDGVLEDPRRCRFDPAVLMCKADQNPDGCLTPAQVEAARRIYGGLKDPKTGAQLYPGLAPGSEPFWPHRNPANPFPIPIAHYKWLVFADPNWDWRTFKFTDPADYQAFLNAEATYAPTLNATNPDLREFSRRGGRLIQYHGWNDQLIAPQNSIDYYESVLSFFGSGKQDRAQTVREVQSFYRLFMAPGMAHCGGGTGPNSFDMLDALEKWVEGGIAPERVLATRSINGVVDRLRPLCPYPQVAVYKGHGDTNDAANFVCRD
modifications: Unkown; Soil sample
activity for the hydrolysis of lovastatin or lovastatin acid [5]: active

B3: SEQ ID NO:2: feruloyl esterase encoded by SEQ ID NO:1 (protein)
chain: MSLCVIRFIAGTLVLVASVESAVAQQACADLMGLELPYTTITSAAVATEGPIPQPAIFGSTDPIVAPERCEVRAVTRPTKDSEIRIELWLPLSGWNGKYLQIGSGGWAGSINRTGLIGPLQRGYAVAATDNGHISEGLVPDASWAIGHPQKLIDFGYRAVHETSVQAKAILRAYFGRGQDLSYFSGCSNGGREALMEAQRYPEDFEGIIAGAPANNWSRLFTGFVWNERALADDPIPPAKLTAIQAAAIAACDTLDGVEDGLIENPRACSFDPRSMVCTADDASDCLTEGQVATLHRIYSGPTNPRTGERIFPGYPMGTEAVPGGWVPWIVSASSEVPSIQASFGNSYYGHAVFEQSNWDFRTLDFDQDVAFGDAKAGPVLNATNPDLRSFRANGGKLIQYHGWGDAAITAFSSIDYYENVRAFLDRFPDPRSENTDIDGFYRLFLVPGMGHCSGGIGPSSFGNGFRSARTDAEHDLLSALEAWVERDTAPERLIGTGTAVGDPTATLTRPLCPYPRTARYLGSGNSNDAANFECALPAGVQ
modifications: Unkown; Soil sample
activity for the hydrolysis of lovastatin or lovastatin acid [5]: active
